Measured values published in US20230012273A1 (Boehringer Ingelheim, published 2023).

T1: cynoSIRPα (NP_001271679), Extracellular Domain + His-Tag (cynomolgus monkey)
T1 construct: also called CySIRPα NP_001271679; not shown: His-Tag
T1 chain: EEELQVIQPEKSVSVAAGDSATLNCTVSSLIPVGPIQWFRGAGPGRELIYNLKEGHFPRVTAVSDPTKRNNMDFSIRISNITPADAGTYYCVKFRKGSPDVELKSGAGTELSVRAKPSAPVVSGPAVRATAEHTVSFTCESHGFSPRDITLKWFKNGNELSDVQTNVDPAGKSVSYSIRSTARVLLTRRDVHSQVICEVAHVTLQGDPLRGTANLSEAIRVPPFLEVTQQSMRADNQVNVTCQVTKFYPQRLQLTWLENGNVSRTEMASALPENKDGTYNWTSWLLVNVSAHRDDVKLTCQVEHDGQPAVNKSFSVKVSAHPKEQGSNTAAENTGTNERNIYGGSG

T2: cynoSIRPα (XP_015313155), Extracellular Domain + His-Tag (cynomolgus monkey)
T2 construct: also called CySIRPα XP_015313155; not shown: His-Tag
T2 chain: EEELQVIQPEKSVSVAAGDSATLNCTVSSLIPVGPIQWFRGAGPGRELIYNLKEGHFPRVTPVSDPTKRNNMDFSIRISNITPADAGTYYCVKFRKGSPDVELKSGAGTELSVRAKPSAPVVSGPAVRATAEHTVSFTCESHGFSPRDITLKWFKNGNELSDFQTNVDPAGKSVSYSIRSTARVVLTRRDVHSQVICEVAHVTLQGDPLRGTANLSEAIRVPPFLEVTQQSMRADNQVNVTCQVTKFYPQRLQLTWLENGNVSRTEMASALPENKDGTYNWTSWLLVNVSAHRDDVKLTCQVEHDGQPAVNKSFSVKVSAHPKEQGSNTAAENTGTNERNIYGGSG

T3: cynoSIRPα (EGM_02252), Extracellular Domain + His-Tag (cynomolgus monkey)
T3 construct: also called CySIRPα EGM_02252; not shown: His-Tag
T3 chain: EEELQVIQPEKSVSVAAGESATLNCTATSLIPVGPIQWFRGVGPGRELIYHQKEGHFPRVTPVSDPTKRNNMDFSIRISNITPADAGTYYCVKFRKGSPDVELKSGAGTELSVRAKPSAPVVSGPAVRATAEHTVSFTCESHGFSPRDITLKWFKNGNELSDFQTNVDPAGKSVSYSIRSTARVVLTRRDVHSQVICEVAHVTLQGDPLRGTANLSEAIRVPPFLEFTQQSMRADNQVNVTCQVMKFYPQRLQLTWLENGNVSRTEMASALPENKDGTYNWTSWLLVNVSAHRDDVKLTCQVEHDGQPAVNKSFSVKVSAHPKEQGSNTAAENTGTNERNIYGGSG


Key:
[1] = target: T4, Human SIRPαV1 (NP_542970.1), Extracellular Domain + His-Tag (human, UniProt P78324 31-373); assay: SPR, antibody captured on Protein A/G, ECD-His analyte, 1:1 fit
T4 construct: also called huSIRPαV1; hSIRPαV1; not shown: His-Tag
T4 sequence (P78324 other isoform, or with tags, fused parts or gaps): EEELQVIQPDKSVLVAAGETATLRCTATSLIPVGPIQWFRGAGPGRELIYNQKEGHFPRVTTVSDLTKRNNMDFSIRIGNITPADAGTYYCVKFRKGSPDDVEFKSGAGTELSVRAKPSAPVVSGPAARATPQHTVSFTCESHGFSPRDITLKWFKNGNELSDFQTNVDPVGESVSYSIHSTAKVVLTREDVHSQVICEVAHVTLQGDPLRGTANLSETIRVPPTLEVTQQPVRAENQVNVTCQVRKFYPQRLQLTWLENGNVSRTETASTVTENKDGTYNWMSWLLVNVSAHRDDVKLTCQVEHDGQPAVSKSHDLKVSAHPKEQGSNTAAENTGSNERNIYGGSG
In short: (§1)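 Biacore 8K+ at HBS-EP+, with antibodies (~1 ug/ml) captured on Protein A/G CM5 surface to ~240 RU. SIRPα ECD-His analyte dilutions injected at 30 μl/min for 300 s association, 600 s dissociation.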

[2] = target: T5, Human SIRPαV2 (CAA71403.1), Extracellular Domain + His-Tag (human, UniProt P78324 31-373); assay: as above
T5 construct: also called huSIRPαV2; hSIRPαV2; not shown: His-Tag
T5 sequence (P78324 other isoform, or with tags, fused parts or gaps): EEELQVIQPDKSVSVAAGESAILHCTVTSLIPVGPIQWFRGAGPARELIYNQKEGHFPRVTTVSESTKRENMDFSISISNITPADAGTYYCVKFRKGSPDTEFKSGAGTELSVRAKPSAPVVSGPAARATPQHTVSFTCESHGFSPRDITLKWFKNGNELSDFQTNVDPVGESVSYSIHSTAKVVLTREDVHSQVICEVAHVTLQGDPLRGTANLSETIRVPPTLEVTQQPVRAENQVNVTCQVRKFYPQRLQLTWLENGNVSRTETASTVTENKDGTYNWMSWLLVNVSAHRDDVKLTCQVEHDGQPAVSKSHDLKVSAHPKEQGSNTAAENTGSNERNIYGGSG
In short: as §1

[3] = target: T1, cynoSIRPα (NP_001271679), Extracellular …; assay: SPR, antibody captured on Protein A/G, ECD-His analyte, steady-state fit
Description: (§2) The binding kinetics of anti-SIRPα antibodies to various SIRPα analytes are determined by surface plasmon resonance (SPR) using a Biacore 8K+(Cytiva). 1×HBS-EP+(Cytiva) is used as running buffer and for all the dilutions unless stated otherwise. The Series S CM5 sensorchip is activated with a 1:1 mixture of 0.1 M NHS (N-hydroxysuccinimide) and 0.4 M EDC (1-Ethyl-3-(3-dimethylaminopropyl) carbodiimide hydrochloride) for 420 seconds at a flow rate of 10 μl/min and immobilized with Protein A/G (Thermo Scientific, 10 μg/ml in 10 mM acetate pH 4.5) for 420 seconds at a flowrate of 10 μl/min resulting in approximately 3000 RU of Protein A/G on the surface. The sensorchip is then deactivated with 1 M ethanolamine HCl pH 8.5 for 420 seconds at a flowrate of 10 μl/min.
(§3) Antibodies (approximately 1 ug/ml) are captured on the Protein A/G surface for 60 seconds at a flowrate of 10 μl/min resulting in capture levels of approximately 240 RU. Dilutions of each SIRP protein (Extracellular Domain+His-Tag, with the concentrations as indicated) are injected as analytes over the captured antibody for 300 seconds of association at a flowrate of 30 μl/min, followed by a dissociation for 600 seconds.
(§4) The above procedures are used to measure binding properties of antibodies of the present disclosure. For each analyte used, the highest concentration was as indicated in Example 3 (see Table 36).

[4] = target: T2, cynoSIRPα (XP_015313155), Extracellular …; assay: as above
Description: as §2, §3, §4

[5] = target: T3, cynoSIRPα (EGM_02252), Extracellular …; assay: as above
Description: as §2, §3, §4

Row | Binder | Kd [1] | koff [1] | kon [1] | Kd [2] | koff [2] | kon [2] | Kd [3] | Kd [4] | Kd [5]
1 | Antibody A9 (antibody, human IgG1, kappa, L234A L235A, V domains shown) VH: EVQLVESGGGLVQPGGSLRLSCAASGFTLSSYDMHWVRQAPGKGLEWVSAIGTAGDTYYTGSVKGRFTISRENAKNSLYLQMNSLRADDTAVYYCVRGGVWDDAFDIWGQGTMVTVSS VL: DIQMTQSPSSLSASVGDRVTITCRASQDINNYLAWFQQKPGKAPKSLIYTASSLHSGVPSKFSGSGSGTDFTLTISSLQPEDFATYYCQQYVSYPYTFGQGTKLEIKR | 7.34 nM | 0.00363 s⁻¹ | 495000 M⁻¹ s⁻¹ | 8.25 nM | 0.00652 s⁻¹ | 791000 M⁻¹ s⁻¹ | 346 nM | 174 nM | 230 nM
2 | Antibody A13 (antibody, human IgG1, kappa, L234A L235A, V domains shown) VH: EVQLVESGGGLVQPGGSLRLSCAASGFTLSSYDMHWVRQAPGKGLEWVSAIGTAGDTYYTGSVKGRFTISRENAKNSLYLQMNSLRAADTAVYYCVRGGVWDDAFDIWGQGTMVTVSS VL: DIQMTQSPSSLSASVGDRVTITCRASQDINNYLAWFQQKPGKAPKSLIYTASSLHSGVPSKFSGSGSGTDFTLTISSLQPEDFATYYCQQYVSYPYTFGQGTKLEIKR | 7.28 nM | 0.00352 s⁻¹ | 484000 M⁻¹ s⁻¹ | 8.36 nM | 0.00635 s⁻¹ | 760000 M⁻¹ s⁻¹ | 330 nM | 177 nM | 223 nM
3 | Antibody A12 (antibody, human IgG1, kappa, L234A L235A, V domains shown) VH: EVQLVESGGGLVQPGGSLRLSCAASGFTLSSYDMHWVRQATGKGLEWVSAIGTAGDTYYTGSVKGRFTISRENAKNSLYLQMNSLRASDTAVYYCVRGGVWDDAFDIWGQGTMVTVSS VL: DIQMTQSPSSLSASVGDRVTITCRASQDINNYLAWFQQKPGKAPKSLIYTASSLHSGVPSKFSGSGSGTDFTLTISSLQPEDFATYYCQQYVSYPYTFGQGTKLEIKR | 7.83 nM | 0.00378 s⁻¹ | 482000 M⁻¹ s⁻¹ | 8.96 nM | 0.00689 s⁻¹ | 769000 M⁻¹ s⁻¹ | 384 nM | 195 nM | 247 nM

Other lines, results leading:

Row | Kd [1] | koff [1] | kon [1] | Kd [2] | koff [2] | kon [2] | Kd [3] | Kd [4] | Kd [5] | Binder
4 | 7.06 nM | 0.00371 s⁻¹ | 526000 M⁻¹ s⁻¹ | 7.91 nM | 0.00671 s⁻¹ | 848000 M⁻¹ s⁻¹ | 317 nM | 174 nM | 224 nM | Antibody A15 (antibody, human IgG1, kappa, L234A L235A, V domains shown) VH: EVQLVESGGGLVQPGGSLRLSCAASGFTLSSYDMHWVRQAPGKGLEWVSAIGTAGDTYYTGSVKGRFTISRENAKNSLYLQMNSLRAEDTAVYYCVRGGVWDDAFDIWGQGTMVTVSS VL: DIQMTQSPSSLSASVGDRVTITCRASQDINNYLAWFQQKPGKAPKSLIYTASSLHSGVPSKFSGSGSGTDFTLTISSLQPEDFATYYCQQYVSYPYTFGQGTKLEIKR
5 | 8.13 nM | 0.00397 s⁻¹ | 488000 M⁻¹ s⁻¹ | 7.95 nM | 0.00648 s⁻¹ | 816000 M⁻¹ s⁻¹ | 316 nM | 176 nM | 222 nM | Antibody A14 (antibody, human IgG1, kappa, L234A L235A, V domains shown) VH: EVQLVESGGGLVQPGGSLRLSCAASGFTLSSYDMHWVRQAPGKGLEWVSAIGTAGDTYYTGSVKGRFTISRENAKNSLYLQMNSLRASDTAVYYCVRGGVWDDAFDIWGQGTMVTVSS VL: DIQMTQSPSSLSASVGDRVTITCRASQDINNYLAWFQQKPGKAPKSLIYTASSLHSGVPSKFSGSGSGTDFTLTISSLQPEDFATYYCQQYVSYPYTFGQGTKLEIKR
6 | 7.98 nM | 0.00377 s⁻¹ | 472000 M⁻¹ s⁻¹ | 8.22 nM | 0.0063 s⁻¹ | 766000 M⁻¹ s⁻¹ | 306 nM | 174 nM | 224 nM | Antibody A16 (antibody, human IgG1, kappa, L234A L235A, V domains shown) VH: EVQLVESGGGLVQPGGSLRLSCAASGFTLSSYDMHWVRQAPGKGLEWVSAIGTAGDTYYTGSVKGRFTISRENAKNSLYLQMNSLRAGDTAVYYCVRGGVWDDAFDIWGQGTMVTVSS VL: DIQMTQSPSSLSASVGDRVTITCRASQDINNYLAWFQQKPGKAPKSLIYTASSLHSGVPSKFSGSGSGTDFTLTISSLQPEDFATYYCQQYVSYPYTFGQGTKLEIKR
